Data taken from paper PMC10954123.

How the values were obtained:
[1] = molecular target: His6x-MotE (mature form of MotE of Cereibacter sphaeroides) (Cereibacter sphaeroides); assay: non-reducing SDS-PAGE; purified His6x-MotE, loading buffer without or with beta-mercaptoethanol, Coomassie blue stain; monomer to disulfide-linked dimer
[2] = molecular target: MotE, endogenous in Cereibacter sphaeroides AM1 (Cereibacter sphaeroides (endogenous in AM1)); assay: non-reducing SDS-PAGE; total cell extracts of AM1 prepared without or with beta-mercaptoethanol, immunodetection with anti-MotE; monomer to disulfide-linked dimer

Substance	stoichiometry N [1]	stoichiometry N [2]
His6x-MotE (mature form of MotE of Cereibacter sphaeroides) (natural protein)	2	
MotE, endogenous in Cereibacter sphaeroides AM1 (natural protein)		2
